Experimental data: the supplement of paper PMC10126150
± gives the standard deviation of the averaged measurements.

System: ATP
Assay: switch fluorescence ratio, 500 uM ATP over buffer (Cy3 cluster intensity, sum of 5 cycles each) (fold (ratio)); higher = stronger signal-on switching upon ATP binding; sequences stand for … in TCGTCGGCAGCGTCAGATGTGTATAAGAGACAGTTTTTTTTTTTTTTTTTTTTTTTTT…TC
Conditions: aptamer strand: ATP DNA aptamer (quencher-CACCTGGGGGAGTATTGCGGAGGAAGG + anchor), 100 nM annealed; ATP concentration: 500 uM
Method in brief: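 Between each of five buffer/ATP cycles, the flow-cell was stripped with NaOH and re-annealed. Each cycle imaged Cy3-labelled switching-strand clusters, annealed to 100 nM quencher-labelled ATP aptamer on a modified Illumina MiSeq flow-cell, first in selection buffer and then after 15 min with 500 uM ATP at 22 °C. The fluorescence ratio is summed target-cycle over summed buffer-cycle Cy3 intensity per cluster, averaged per switch-domain sequence, with clusters outside 100-1000 RFU excluded.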
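Further: ATP exposure 15 min at 22 °C before imaging.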

Sequence | switch fluorescence ratio
ATAGGATCTT | 0.996 ± 0.028
ATGTGTGGGA | 1.029 ± 0.0019
GGGGTAAAAG | 1.08 ± 0.2
ACTTGGCAAT | 4.347 ± 0.014
AGGGGGAGGT | 0.975 ± 0.017
TGGGGTGCAC | 0.957 ± 0.024
ACACTTTACT | 1.32 ± 0.014
TGGGTCTTGG | 0.9835 ± 0.0057
TTGGTACCGC | 1 ± 0.048
CGTCAGTATG | 1 ± 0.033
ATCGCGTTGG | 0.983 ± 0.027
CGTGTCATTA | 1.01 ± 0.031
CACTGGGGAT | 0.981 ± 0.046
TGGTTTGGCA | 0.962 ± 0.012
TATATGGGAA | 0.998 ± 0.029
CGTGGTATTT | 0.982 ± 0.016
GCGGAGAAAT | 1.4 ± 0.3
TAACGGGGTA | 1.01 ± 0.02
AAGGGGGTCA | 1.016 ± 0.0063
CCGGGTTTGG | 0.984 ± 0.017
AATTGG | 0.992 ± 0.018
ACCAGGGTCA | 1.05 ± 0.034
ACGCCGGATT | 1.01 ± 0.027
AGCATTTAGG | 1.02 ± 0.035
GAGGGAAAGG | 1.02 ± 0.052

Sequence | switch fluorescence ratio
TTTAGGTTCA | 0.98 ± 0.041
TGGGAGAAAT | 2.39 ± 2.4
TAAATGGGTT | 1 ± 0.027
CCATTATATC | 1.01 ± 0.047
TCACATTATA | 1.009 ± 0.0078
ATGGGGGCTG | 1.02 ± 0.047
ATAACAAACT | 1.05 ± 0.012
TGTTTTATG | 1.007 ± 0.0086
TAAGAGGA | 0.991 ± 0.015
GGGTCTATCG | 0.989 ± 0.034
CGGGGTTTTG | 1.014 ± 0.0068
AGAGGTCTTG | 0.979 ± 0.029
TCGGATTGTG | 1.01 ± 0.021
TCGAGTCATT | 0.9913 ± 0.005
TTGGCTATTT | 0.9981 ± 0.0075
AGTTTAGAAT | 1.001 ± 0.0052
GCTTGGTCGT | 1.03 ± 0.024
TGCGGGGGGC | 0.991 ± 0.012
AAGGGTTTGT | 0.986 ± 0.017
GCATTAAAGT | 0.958 ± 0.033
TAGTCAGCC | 1.01 ± 0.029
TAGGGTCTCA | 1 ± 0.031
TTTTAGAGCG | 1.02 ± 0.025
AGCATTGTGA | 0.998 ± 0.051
AGGTATCAAT | 1 ± 0.053

Sequence | switch fluorescence ratio
TCAGGGGTT | 1.15 ± 0.12
GGCATGGTGG | 1.01 ± 0.023
CATGGTTCTG | 1.02 ± 0.027
TGGGACCCCC | 1.34 ± 0.47
ACCTTTTTAG | 1.02 ± 0.015
CCATAGTTTG | 0.993 ± 0.018
GGATGGATGG | 0.993 ± 0.082
TGGTGTTGCT | 0.9797 ± 0.0068
AAATTTAATG | 0.961 ± 0.016
AAAGGGCCAG | 1.02 ± 0.02
AATTTGGGAG | 1.01 ± 0.025
TTTAAAGTGT | 0.997 ± 0.029
TACTCGGATT | 0.996 ± 0.015
TTTAGATTCT | 0.992 ± 0.032
GCATCATTTA | 1.009 ± 0.0059
TTGCCACGGA | 1.07 ± 0.051
GGGAGACGGT | 1.02 ± 0.068
TGAGTGTAGA | 1.07 ± 0.023
TAGTATGGGT | 0.9692 ± 0.0077
TATGCGGGGG | 1.02 ± 0.046
CTTGGAGTGG | 0.978 ± 0.024
ATGTAACTGT | 0.976 ± 0.033
ATGTGGCCAC | 1.06 ± 0.053
TCGGGGGCTG | 0.9799 ± 0.0077
CTAATTGGTT | 0.988 ± 0.015

Sequence | switch fluorescence ratio
CAGGCGGCCC | 1.019 ± 0.01
GGGTTTTGGT | 0.978 ± 0.022
CGCCCCTGGG | 1.13 ± 0.18
TACCATCTTG | 0.997 ± 0.037
TGAAGGGTAT | 1.02 ± 0.033
AAGGTGTTCG | 0.957 ± 0.016
AAGGTTTTCG | 1.01 ± 0.026
TTTCGGGGAC | 1.43 ± 0.62
TTGTTGGTCC | 1.16 ± 0.25
TTGTGTTTTT | 0.995 ± 0.023
ACGTTAGGTC | 1.04 ± 0.019
GCCTTACGTC | 1.05 ± 0.052
TTAGGAAGGT | 1 ± 0.021
AAGCAGGTGG | 1.052 ± 0.0096
TAGCCGGTTC | 1.026 ± 0.01
CGTACGGTAA | 1.09 ± 0.042
TGTCAGTGGG | 0.975 ± 0.034
ATGAGTGTGG | 1.02 ± 0.021
CACGGGGTTT | 0.954 ± 0.011
TATTTTACGT | 1.01 ± 0.013
TTGCTGTGAG | 0.9762 ± 0.0012
GGATTGTGTT | 0.985 ± 0.0018
AGGATTTCGT | 1.008 ± 0.0068
TAATTTAAAA | 1.05 ± 0.12
ATTCTTTGG | 0.9676 ± 0.0024

Sequence | switch fluorescence ratio
TATTTAAACG | 1 ± 0.011
TATTAGTGAT | 0.9869 ± 0.0055
TTCAAAGTCA | 1.02
ATAAGGGGAT | 0.983 ± 0.023
AAATCGAGGT | 0.9917 ± 0.0052
TTATGACGGG | 1 ± 0.036
TGACGTAGTG | 0.991 ± 0.028
TTTTATTTGT | 0.985 ± 0.0089
GCTCGACCCT | 1.07 ± 0.039
ATGGGCATC | 0.9882 ± 0.0058
GGGCGGTGTC | 1.01 ± 0.042
TAAGTAGGGC | 1.2 ± 0.18
GGGCATTTTG | 0.998 ± 0.015
GGTAGGGTGC | 0.985 ± 0.074
TCCGTGAGTG | 1.07 ± 0.031
CCTAAATGGG | 1.01 ± 0.077
GGGAGGCGGT | 1.01 ± 0.019
ATGCGATCAA | 1.02 ± 0.014
AATTTGGCGT | 0.968 ± 0.011
TTCGGAACAG | 0.967 ± 0.013
GTGGGTGCGG | 0.979 ± 0.051
TTGCGAAATC | 1.44 ± 0.58
TAAATTTTGT | 1.02 ± 0.039
CAATGTTCGA | 0.981 ± 0.01
AAGGCCAGCG | 0.953 ± 0.051

Sequence | switch fluorescence ratio
TATGACATTA | 1.025 ± 0.0026
TTTTCAGGGT | 1.01 ± 0.025
TTGATCTCAT | 0.9479 ± 0.0076
GTTATCTTTC | 1.07 ± 0.029
CTAGTAAGCG | 0.998 ± 0.048
TTGATTGCTT | 0.9717 ± 0.0011
GGGCAAGGGC | 1.038 ± 0.01
ATCGTGTTTG | 0.952 ± 0.043
CCGAACTTTT | 1.07 ± 0.075
AGGCTACCGT | 1.0254 ± 0.001
AATGGGGACG | 0.985 ± 0.021
CCCAAAGGGG | 1.04 ± 0.04
GTGCCTCCTG | 1.03 ± 0.018
AACTTCAGGC | 1.05 ± 0.041
ATGAGGAGTT | 0.996 ± 0.025
GATGTAGTAG | 1.01 ± 0.042
CGATTTTGGT | 0.9633 ± 0.0038
GGGTAGGCGT | 0.999 ± 0.062
CGGCGCCTGT | 1.01 ± 0.05
GGGATAAGGC | 1.08 ± 0.014
CAAGAATTTG | 0.9816 ± 0.0097
CGTCTGGTGG | 0.991 ± 0.05
ATAATTGGGT | 0.993 ± 0.022
GATAATGGGT | 0.976 ± 0.042
TCTTGGGGT | 1.06 ± 0.15

Sequence | switch fluorescence ratio
AAATTTACAT | 1.002 ± 0.0034
CCAAGGGATG | 0.967 ± 0.018
AAGGGCCCTT | 1.01 ± 0.018
ACAGCTTCTA | 1.03 ± 0.021
TATAACGGTT | 1.034 ± 0.0074
TTCGGATGGC | 1.01 ± 0.084
GACTTTTCGA | 1 ± 0.04
ACAAGGATTC | 0.995 ± 0.025
ATCGAAGAGG | 0.995 ± 0.048
CGATGCGAAG | 1.02 ± 0.035
AATTGTTGCG | 0.974 ± 0.015
TTGGGAAGGT | 0.982 ± 0.049
TAAGTTCGCA | 1.05 ± 0.024
CTAATGGTTT | 0.982 ± 0.024
GTTGGGCGGA | 0.993 ± 0.029
AGGGGACGCC | 0.9928 ± 0.0049
CAGGCGGGTG | 1.06 ± 0.11
TATTAGGGTG | 1.05 ± 0.098
GTGAGGCGCT | 1.03 ± 0.011
TCAGGGGCCT | 1.03 ± 0.044
TTTCGACACG | 0.989 ± 0.018
TTGATGGTAC | 1.0774 ± 0.00051
CCAGGCTCTG | 0.993 ± 0.006
GACTGCAGGT | 1.01 ± 0.033
GTGGTTTGGC | 1.01 ± 0.09

Sequence | switch fluorescence ratio
AGCATTTCTT | 0.98 ± 0.042
CTACACGCTG | 1.01 ± 0.1
GGTCGCGGGT | 1 ± 0.038
GATAAGAGCG | 0.975 ± 0.029
TTGTGCTGCC | 1.05 ± 0.027
CGGTACCATC | 1.02 ± 0.013
AATACCGGCA | 1.04 ± 0.045
TCATGTAAGA | 0.998 ± 0.024
TTTTTGGAAA | 1.01 ± 0.051
TTTCAGTGCA | 1.02 ± 0.029
TCTGGAAAGG | 0.9844 ± 0.00033
TACATCGTCC | 1.05 ± 0.024
TACACTTGTA | 1.03 ± 0.057
GAGCTTTCCG | 1.19 ± 0.26
GTCAAGGGGA | 1.02 ± 0.015
TGTCGGTGTT | 0.971 ± 0.029
AAGAGTGGTG | 0.988 ± 0.015
ATTTTTCTCG | 0.96 ± 0.041
TGTGGTTTGT | 1 ± 0.035
ACAAGGGAGA | 1.06 ± 0.012
GCGCAGCGGC | 1.09 ± 0.023
CCCTTAGGGA | 1.02 ± 0.026
CGTAGTGAGG | 0.994 ± 0.03
TACAGTGAGC | 1.026 ± 0.0019
TTAATTGGGC | 1.03 ± 0.069
